“And” between values parts separate entries of the source, which are not always exact repeats. Equal values may be shown once.

For assay [1], the target named is human IGF-1 receptor (human) (UniProt P08069). In words: cell-based or functional assay.
Assay [2] has as its target insulin receptor, B subtype (UniProt P06213). In words: cell-based or functional assay.
Assay [3] concerns the target insulin receptor, A subtype (UniProt P06213). Put plainly: cell-based or functional assay.
The target in assay [4] is human insulin receptor (human) (UniProt P06213). In words: cell-based or functional assay.
For assay [5] the target is unchanged. Put plainly: SPA competition, [125I]-insulin, IR membranes.

“Ala,B5: B^1(A5H10Y16L17)25-C^1-A^1(H8N18N21) (from UniProt P05019 49-110) (ligand)” displayed a % (in vitro activity, IGF-1 R) in assay [1] of 2.5%. Further, the % (in vitro activity, IR-B) in assay [2] came out at 5.7%.
For the substance “DP3(SC): B^1(H5,10Y16L17K29)29-A^1(H8,N18,21) (from UniProt P05019 49-110) (ligand)”, the % (in vitro activity, IR-A) in assay [3] is 0.03%.
Regarding “DP3(TC): B^1(H5,10Y16L17K29)29: A^1(H8,N18,21) (ligand)”, the % (in vitro activity, IR-A) in assay [3] was 160%. The % (in vitro activity, IR-B) in assay [2] was determined as 33.1%.
“DP8Mut3KA14: B^1(H5,10Y16L17R29)30-C^1des9-12-A^1(H8,K14,N18,21) (from UniProt P05019 49-110) (ligand)”: the % (in vitro activity, IR-A) in assay [3] amounted to 132%. Moreover, the % (in vitro activity, IR-B) in assay [2] stood at 12.6%.
Consider “IGF-1 A (H8 A9 N21): B (H5D10Y16L17 A22) DPI A-COOH (ligand)”, for which, in assay [4], the % Insulin is 360% and 614%.
The term IC50 denotes the concentration that inhibits the measured activity by half. With “IGF-1 A: B (H5D10Y16L17) (S═O) DPI (ligand)”, in assay [5], the % insulin (in test) was 316% and the IC50 came out at 0.25 nM.
The like results for IGF-1 A: B (H5D10Y16L17) DPI (ligand) were, in that order, 479% and 0.16 nM.
In assay [1], “MIU-35: B^1(H5,H10,Y16,L17)25-C^1-A^1(H8,N18,N21) (from UniProt P05019 49-110) (ligand)” yielded a % (in vitro activity, IGF-1 R) of 3.2% and a % Insulin Activity of 3.2%. Moreover, in assay [3], the % (in vitro activity, IR-A) was 61.4% and the % Insulin Activity turned out to be 61.4%. In assay [2], this substance returned a % (in vitro activity, IR-B) of 17.4% and a % Insulin Activity of 17.4%.
“MIU-43 DP8Mut3: B^1(H5,10Y16L17R29)30-C^1des9-12-A^1(H8,N18,21) (from UniProt P05019 49-110) (ligand)” registered a % (in vitro activity, column IGF-1R) in assay [1] of 14.2%. Moreover, in assay [3], the % (in vitro activity, IR-A) turned out to be 97.5%. Also, the % (in vitro activity, IR-B) in assay [2] was 16.7%.
Consider “MIU-56: C8-PEG20K B^1(H5,Y16,L17)25-PEG8-K-PEG4-A^1(N18,N21) (from UniProt P05019 49-110) (ligand)”, for which the % Insulin Activity in assay [3] is 14.8%.
As to “MIU-57: B^1(H5,Y16,L17)25-C^1-A^1(N18,21) with a 20 kDa PEG on the N-terminus of the B chain (from UniProt P05019 49-110) (ligand)”, in assay [1], the % (in vitro activity, IGF-1 R) turned out to be 1.2% and the % Insulin Activity was 1.2%. In assay [3], the % (in vitro activity, IR-A) was found to be 4.5% and the % Insulin Activity came to 3.1%. In assay [2], this substance gave a % (in vitro activity, IR-B) of 1.1% and a % Insulin Activity of 1.1%.
On to “MIU-58: dimer of two B^1(H5,Y16,L17)25-C^1-A^1(N18,21) linked head to head via a 20 kDa PEG chain (from UniProt P05019 49-110) (ligand)”, for which the results for the % Insulin Activity in assay [1], in assay [3] and in assay [2] were 2.6%, 19.7% and 5.8%, respectively.
The like results for “MIU-67: B^1(H5,Y16,L17)25-C^1(K8)-A^1(N18,21), two 10K PEG chains at the N-terminus and C8 (from UniProt P05019 49-110) (ligand)” were, in that order, less than 0.1%, 0.2% and 0.1%.
The like results for “MIU-68: B^1(H5,Y16,L17,K22)25-C^1(K8)-A^1(N18,21), two 10K PEG chains at the N-terminus and B22 (from UniProt P05019 49-110) (ligand)” were, in that order, less than 0.1%, 0.4% and 0.1%.
The like results for “MIU-69: B^1(H5,Y16,L17)25-C^1(K8)-A^1(K14,N18,21), two 10K PEG chains at the N-terminus and A14 (from UniProt P05019 49-110) (ligand)” were, in that order, less than 0.1%, 1% and 0.5%.
In the case of “MIU-78 mono-20K-TC: B1-20K B^1(H5,10Y16L17K29)29: A^1(H8N18,21) (ligand)”, in assay [3], the % (in vitro activity, IR-A) was 8.2%. The substance further came in with a % (in vitro activity, IR-B) in assay [2] of 3.2%.
On to “MIU-79 di-10K-SC: B1, A14-10K B^1(H5,10Y16L17R29)30-C^1des9-12-A^1(H8,K14,N18,21) (from UniProt P05019 49-110) (ligand)”, for which, in assay [3], the % (in vitro activity, IR-A) is 1.7%. In assay [2], this substance gave a % (in vitro activity, IR-B) of 0.2%.
Consider “Thr,A8: B^1(H5,10Y16L17)25-C^1-A^1(T8N18,21) (from UniProt P05019 49-110) (ligand)”, for which the % (in vitro activity, IGF-1 R) in assay [1] came to 3.7%. For the same substance, in assay [3], the % (in vitro activity, IR-A) is 20.4%. In assay [2], this substance returned a % (in vitro activity, IR-B) of 8.4%.
Consider “di-10K-TC: B1, A14-10K B^1(H5,10Y16L17R29)29: A^1(H8K14N18,21) (ligand)”, for which the % (in vitro activity, IR-A) in assay [3] was 6.4%. The % (in vitro activity, IR-B) in assay [2] came out at 2.1%.

These data come from patent US20150148520A1.
